Key:
Assay in all cases: SPR; cytokine immobilised on ProteOn GLH sensor chip by amine coupling (9,000-14,000 RU); S100P (wild type or mutant) as analyte, 62 nM-16 µM; 25 °C; 10 mM HEPES, 150 mM NaCl, 1 mM CaCl2, 0.05% TWEEN 20, pH 7.4; heterogeneous ligand model (two ligand populations), one-site model for IL-13; values averaged over analyte concentrations (n = 3-5)
Details in all cases: both partners purified
Interleukin-15 = target: T1, Interleukin-15 (human, UniProt P40933 49-162)
T1 construct: Interleukin-15, human, UniProt P40933; see the manufacturer's catalogue number; also called IL-15; source: bought: PeproTech (source E. coli)

Interleukin-3 = target: T2, Interleukin-3 (human, UniProt P08700 20-152)
T2 construct: Interleukin-3, human, UniProt P08700; see the manufacturer's catalogue number; also called IL-3; source: bought: SCI-Store (Russia) (source CHO)
T2 sequence (looked up): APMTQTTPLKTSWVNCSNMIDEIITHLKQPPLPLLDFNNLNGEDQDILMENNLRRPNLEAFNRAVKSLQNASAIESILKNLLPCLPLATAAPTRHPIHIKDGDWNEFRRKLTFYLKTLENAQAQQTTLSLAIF

Growth hormone variant = target: T3, Growth hormone variant (human, UniProt P01242 27-217)
T3 construct: Growth hormone variant, human, UniProt P01242; see the manufacturer's catalogue number; also called GH-V; source: bought: R&D Systems (source E. coli)

Interleukin-13 = target: T4, Interleukin-13 (human, UniProt P35225 25-146)
T4 construct: Interleukin-13, human, UniProt P35225; see the manufacturer's catalogue number; also called IL-13; source: bought: PeproTech (source E. coli)

Interleukin-21 = target: T5, Interleukin-21 (human, UniProt Q9HBE4 25-162)
T5 construct: Interleukin-21, human, UniProt Q9HBE4; see the manufacturer's catalogue number; also called IL-21; source: bought: PeproTech (source E. coli)

Interleukin-9 = target: T6, Interleukin-9 (human, UniProt P15248 19-144)
T6 construct: Interleukin-9, human, UniProt P15248; see the manufacturer's catalogue number; also called IL-9; source: bought: PeproTech (source E. coli)
T6 sequence (P15248 19-144): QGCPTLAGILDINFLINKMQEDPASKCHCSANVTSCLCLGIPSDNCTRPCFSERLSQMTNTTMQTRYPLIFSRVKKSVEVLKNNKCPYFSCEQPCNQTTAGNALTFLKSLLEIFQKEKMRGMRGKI

T5 sequence (Q9HBE4 25-162): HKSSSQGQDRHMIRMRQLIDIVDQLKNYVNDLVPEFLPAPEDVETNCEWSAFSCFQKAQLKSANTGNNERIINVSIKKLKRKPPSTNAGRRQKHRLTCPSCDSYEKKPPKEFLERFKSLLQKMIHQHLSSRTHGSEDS
T1 sequence (P40933 49-162): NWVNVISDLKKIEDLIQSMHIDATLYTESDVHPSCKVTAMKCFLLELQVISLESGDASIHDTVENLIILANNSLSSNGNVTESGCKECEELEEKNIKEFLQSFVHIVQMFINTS
T3 sequence (P01242 27-217, change not shown): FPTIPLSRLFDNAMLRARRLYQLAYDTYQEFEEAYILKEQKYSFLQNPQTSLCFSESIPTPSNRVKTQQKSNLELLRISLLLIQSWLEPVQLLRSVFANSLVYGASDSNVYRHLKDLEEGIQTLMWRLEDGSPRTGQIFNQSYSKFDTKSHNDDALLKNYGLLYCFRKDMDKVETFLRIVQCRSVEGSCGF
T4 sequence (P35225 25-146): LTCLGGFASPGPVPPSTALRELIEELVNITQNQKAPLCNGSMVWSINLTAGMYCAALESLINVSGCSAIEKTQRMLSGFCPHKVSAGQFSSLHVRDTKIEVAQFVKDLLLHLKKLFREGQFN

Kd1 (heterogeneous ligand model, population 1) (Interleukin-15): 102 nM
Kd2 (heterogeneous ligand model, population 2) (Interleukin-15): 980 nM
kd1 (heterogeneous ligand model, population 1) (Interleukin-15): 0.00109 s⁻¹
kd2 (heterogeneous ligand model, population 2) (Interleukin-15): 0.0272 s⁻¹
Kd1 (heterogeneous ligand model, population 1) (Interleukin-3): 23.2 nM
Kd2 (heterogeneous ligand model, population 2) (Interleukin-3): 579 nM
kd1 (heterogeneous ligand model, population 1) (Interleukin-3): 0.000627 s⁻¹
kd2 (heterogeneous ligand model, population 2) (Interleukin-3): 0.00529 s⁻¹
Kd1 (heterogeneous ligand model, population 1) (Growth hormone variant): 1.04 µM
Kd2 (heterogeneous ligand model, population 2) (Growth hormone variant): 2.73 µM
kd1 (heterogeneous ligand model, population 1) (Growth hormone variant): 0.00177 s⁻¹
kd2 (heterogeneous ligand model, population 2) (Growth hormone variant): 0.0181 s⁻¹
Kd (Interleukin-13): 2.3 µM
koff (Interleukin-13): 0.0183 s⁻¹
Kd1 (heterogeneous ligand model, population 1) (Interleukin-21): 272 nM
Kd2 (heterogeneous ligand model, population 2) (Interleukin-21): 285 nM
kd1 (heterogeneous ligand model, population 1) (Interleukin-21): 0.000928 s⁻¹
kd2 (heterogeneous ligand model, population 2) (Interleukin-21): 0.0126 s⁻¹
Kd1 (heterogeneous ligand model, population 1) (Interleukin-9): 34.7 nM
Kd2 (heterogeneous ligand model, population 2) (Interleukin-9): 136 nM
kd1 (heterogeneous ligand model, population 1) (Interleukin-9): 0.000531 s⁻¹
kd2 (heterogeneous ligand model, population 2) (Interleukin-9): 0.017 s⁻¹
B1: Human S100P protein (recombinant, Ca^2+-loaded) (natural protein)
chain: MTELETAMGMIIDVFSRYSGSEGSTQTLTKGELKVLMEKELPGFLQSGKDKDAVDKLLKDLDANGDAQVDFSEFIVFVAAITSACHKYFEKAGLK
notes: S100P protein, human, recombinant; probably the whole 95-residue protein (surmise); also called wild-type S100P; WT S100P; source: E. coli, prepared as previously described [28]

— paper PMC9569990 (International Journal of Molecular Sciences, 2022)
